Source: patent US20240192215A1

Experiments:
[1] = target: T1, Peptide_096 (human); assay: peptide microarray, secondary antibody only
T1 sequence (peptide): FFKKGQKVGEFSGAN

[2] = target: T2, Peptide_097 (human); assay: peptide microarray, secondary antibody only
T2 sequence (peptide): FKKGQKVGEFSGANK

[3] = target: T3, Peptide_044 (human); assay: peptide microarray, secondary antibody only
T3 sequence (peptide): FSATWCGPCKMIKPF

[4] = target: T4, Peptide_051 (human); assay: peptide microarray, secondary antibody only
T4 sequence (peptide): PCKMIKPFFHSLSEK

[5] = target: T5, Peptide_092 (human); assay: peptide microarray, secondary antibody only
T5 sequence (peptide): PTFQFFKKGQKVGEF

[6] = target: Full-length mouse IgG; assay: microarray control spot; secondary antibody after B264 0.2 ug/mL
[7] = target: Human_IgG; assay: as above
[8] = target: Full-length mouse IgG; assay: microarray control spot; secondary antibody after B266-1 5 ug/mL
[9] = target: Human_IgG; assay: as above
[10] = target: Full-length mouse IgG; assay: microarray control spot; secondary antibody after B264 1 ug/mL
[11] = target: Human_IgG; assay: as above
[12] = target: Full-length mouse IgG; assay: microarray control spot; secondary antibody after B266-1 0.0016 ug/mL
[13] = target: Human_IgG; assay: as above
[14] = target: Full-length mouse IgG; assay: microarray control spot; secondary antibody after B264 0.04 ug/mL
[15] = target: Human_IgG; assay: as above
[16] = target: Full-length mouse IgG; assay: microarray control spot; secondary antibody after B266-1 1 ug/mL
[17] = target: Human_IgG; assay: as above
[18] = target: Full-length mouse IgG; assay: microarray control spot; secondary antibody after B266-1 0.04 ug/mL
[19] = target: Human_IgG; assay: as above
[20] = target: Full-length mouse IgG; assay: microarray control spot; secondary antibody after B266-1 0.2 ug/mL
[21] = target: Human_IgG; assay: as above
[22] = target: Full-length mouse IgG; assay: microarray control spot; secondary antibody after B264, head 0.08 ug (text 0.008 ug/mL)
[23] = target: Human_IgG; assay: as above
[24] = target: Full-length mouse IgG; assay: microarray control spot; secondary antibody after B264 0.0016 ug/mL
[25] = target: Human_IgG; assay: as above
[26] = target: Full-length mouse IgG; assay: microarray control spot; secondary antibody after B264 5 ug/mL
[27] = target: Human_IgG; assay: as above
[28] = target: Full-length mouse IgG; assay: microarray control spot; secondary antibody after B266-1, head 0.08 ug (text 0.008 ug/mL)
[29] = target: Human_IgG; assay: as above
[30] = target: Full-length mouse IgG; assay: microarray control spot; secondary antibody only
[31] = target: Human_IgG; assay: microarray control spot; secondary antibody only

- signal (blank-control = 1) [1]: 1.18
- signal (blank-control = 1) [2]: 1.34
- signal (blank-control = 1) [3]: 1.73
- signal (blank-control = 1) [4]: 0.47
- signal (blank-control = 1) [5]: 2.28
- signal (blank-control = 1) [6]: 46
- signal (blank-control = 1) [7]: 36.3
- signal (blank-control = 1) [8]: 47
- signal (blank-control = 1) [9]: 35.8
- signal (blank-control = 1) [10]: 24.5
- signal (blank-control = 1) [11]: 20.8
- signal (blank-control = 1) [12]: 84.8
- signal (blank-control = 1) [13]: 35.4
- signal (blank-control = 1) [14]: 69.5
- signal (blank-control = 1) [15]: 48.1
- signal (blank-control = 1) [16]: 65.4
- signal (blank-control = 1) [17]: 52.8
- signal (blank-control = 1) [18]: 79.7
- signal (blank-control = 1) [19]: 49.7
- signal (blank-control = 1) [20]: 71.4
- signal (blank-control = 1) [21]: 49.6
- signal (blank-control = 1) [22]: 76.3
- signal (blank-control = 1) [23]: 52.6
- signal (blank-control = 1) [24]: 74.5
- signal (blank-control = 1) [25]: 45.7
- signal (blank-control = 1) [26]: 7.16
- signal (blank-control = 1) [27]: 6.7
- signal (blank-control = 1) [28]: 74.6
- signal (blank-control = 1) [29]: 47.9
- signal (blank-control = 1) [30]: 54.6
- signal (blank-control = 1) [31]: 46.6
Substance: fluorescence-labeled secondary anti-mouse-IgG antibody (anti-mouse IgG(H+L) (Thermo 84545))
